From the supplement of paper PMC12042874
± gives the uncertainty stated by the source.

assay: amyloid nucleation score (Sup35N fusion, yeast selection) (log enrichment); library NNK3; higher = more nucleation; inactive = no reads after selection
Summary of the method: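 Peptides of 20 random codons fused to Sup35N were expressed in psi-negative yeast, induced 24 hours with 100 μM copper sulfate, then grown 7 days at 30°C on medium lacking adenine and uracil. Input and output plasmid inserts were Illumina-sequenced. Nucleation score is the DiMSum log enrichment of output over input reads, centred on the mode score of non-aggregating sequences, excluding sequences with under 100 input reads. Random libraries had three technical output replicates.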

Row | Substance | amyloid nucleation score
1 | LMGVDSLLYRKHSGV | inactive
2 | LMIISGCSHMSHSVRSTRGL | -0.217 ± 0.58
3 | LMIMSKVSKSP | 0.465 ± 0.25
4 | LMLMVCVN | -0.601 ± 0.74
5 | LMNEKNPSQDNRFRIVRALS | inactive
6 | LMNEY | inactive
7 | LMPRTEI | inactive
8 | LMSYSRFGCSDSYLNVDSSA | inactive
9 | LNAMWAWSRLDCNWGIQRNR | inactive
10 | LNCDIVFELL | inactive
11 | LNFCDRTIEICRLEY | inactive
12 | LNGSAHYRGCCLKRRTICWM | inactive
13 | LNLGHDGYPNTSARVFHFC | inactive
14 | LNMLKVLFSWIRYDGNQ | inactive
15 | LNPPNKYDLDVFWVMVSYKK | inactive
16 | LNRDGVISMFFSFCGGTRPR | -0.452 ± 0.93
17 | LNTGLLLLCG | inactive
18 | LNTKEYLLYKRICTSNANLL | -0.621 ± 1.1
19 | LNVRSI | inactive
20 | LNVYNWKN | inactive
21 | LNYNF | inactive
22 | LPALEQNVLHLVMVIY | inactive
23 | LPGCVSEFG | inactive
24 | LPIKMGMLLSICDLLG | inactive
25 | LPRTYRKALVPNVVVFSYLT | inactive
26 | LPVVFLCRYDSI | inactive
27 | LPYQIIWRCCAMVNFDFLVL | inactive

Row | Substance | amyloid nucleation score
28 | LPYYCSIDAVMCREPTGLGS | inactive
29 | LQAQMYCLTTLWSWFGRVSR | inactive
30 | LQAYAMGNYRGDKK | inactive
31 | LQFVMLRTWVLRSRGTQAVT | 0.592 ± 0.21
32 | LQKIKCSQADYWREMTVRDR | 1.01 ± 0.16
33 | LQLWVSFSSVKLCYCISHSF | inactive
34 | LQVLFSYYFENRSGDLVRDD | 0.641 ± 0.14
35 | LQYRSL | inactive
36 | LRAKTRHSVLNCDRIVEPGG | 1.49 ± 0.13
37 | LRCWYFLNMMMPYPPPSIKW | inactive
38 | LRGGKVMITRFVSCSI | inactive
39 | LRGSRYFWDWAPSYYFVHLR | inactive
40 | LRGSYNVS | inactive
41 | LRKRELCGIPSINAAPGLLG | inactive
42 | LRLNLMSILKVEYRCSMITW | inactive
43 | LRLSGVMHRTFYCVVSGHGR | inactive
44 | LRMFNGSEAIYFMLVQSLFR | inactive
45 | LRNIMGECDSAWKDVMVGVA | inactive
46 | LRNLVTWRVQSKWFSIQSSW | inactive
47 | LRNVYTRVEITQLLTRTSGS | inactive
48 | LRRRVKSFSELYLAVTRVML | 0.286 ± 0.43
49 | LRRSVSIGDPGASLIKTSFA | inactive
50 | LRRYVARNRRSYFTESLPRA | -0.123 ± 1.4
51 | LRSVLSVGGEMAYINCNQLL | inactive
52 | LRSWNMLPRWVGRYWIFGGK | inactive
53 | LRTAEDFETS | -0.416 ± 1.5
54 | LRTFKITFRGTVKTRRSLTN | 0.466 ± 0.63

Row | Substance | amyloid nucleation score
55 | LRTPGTGSFAESEDLSMTEG | inactive
56 | LRVCISGYSN | inactive
57 | LRVMSI | -0.964 ± 2.5
58 | LRWYPDSCYVSV | inactive
59 | LRYGEFSCSNLYFTWLSFIL | 0.749 ± 0.17
60 | LRYVGCTKMSGAMGARS | inactive
61 | LRYWPVCLVQIAFDFTVTGV | 1.97 ± 0.062
62 | LRYWWLDLTYYL | inactive
63 | LSAHMMSCIKVYEFGFGCVD | inactive
64 | LSALHSVYLINAISFGFNQT | 1.09 ± 0.13
65 | LSDDMPKV | inactive
66 | LSDWKFDMCYCFFVLCQELW | inactive
67 | LSDYEDIAISFIKYRCSSLN | 1.42 ± 0.11
68 | LSFHP | inactive
69 | LSFRTQALFYFVMLYGIWRA | inactive
70 | LSFSRDRLLHSSWGTKLMIM | inactive
71 | LSFTHSSDTECCGER | inactive
72 | LSFYCFNYSNFDMVWNGKYN | 2.29 ± 0.062
73 | LSGFSMIFREDNSVVFV | inactive
74 | LSGVLLILSMYLDYWTNIF | inactive
75 | LSINLASSSGVSVLLKGSNL | 0.87 ± 0.24
76 | LSKRRTIILGLVELRYSEVE | inactive
77 | LSLCRT | 0.001 ± 0.32
78 | LSLFPMGCIYKHRIGLVTAK | inactive
79 | LSLISVSLG | inactive
80 | LSLREE | inactive
